Measurements reported in patent publication US20230174652A1 (Regeneron, published 2023).

How the values were obtained:
hCD22.mmH = molecular target: T1, hCD22.mmH (human, UniProt P20273 20-687); assay: SPR (Biacore), mAb captured by anti-human Fc, hCD22.mmH injected, 25°C
T1 construct: also called REGN5140; recombinant human CD22
Protocol: (§1) All of the binding kinetics experiments were performed at 25° C. Kinetic association (kₐ) and dissociation (kd) rate constants were determined by fitting the real-time sensorgrams to a 1:1 binding model using Scrubber 2.0c curve fitting software.

[1] = molecular target: T2, Monkey CD22.mmH (EHH59463.1) (monkey (cyno)); assay: SPR (Biacore), mAb captured by anti-human Fc, monkey CD22.mmH (EHH59463.1) injected, 25°C
T2 construct: also called REGN5281; mfCD22.mmH
T2 chain: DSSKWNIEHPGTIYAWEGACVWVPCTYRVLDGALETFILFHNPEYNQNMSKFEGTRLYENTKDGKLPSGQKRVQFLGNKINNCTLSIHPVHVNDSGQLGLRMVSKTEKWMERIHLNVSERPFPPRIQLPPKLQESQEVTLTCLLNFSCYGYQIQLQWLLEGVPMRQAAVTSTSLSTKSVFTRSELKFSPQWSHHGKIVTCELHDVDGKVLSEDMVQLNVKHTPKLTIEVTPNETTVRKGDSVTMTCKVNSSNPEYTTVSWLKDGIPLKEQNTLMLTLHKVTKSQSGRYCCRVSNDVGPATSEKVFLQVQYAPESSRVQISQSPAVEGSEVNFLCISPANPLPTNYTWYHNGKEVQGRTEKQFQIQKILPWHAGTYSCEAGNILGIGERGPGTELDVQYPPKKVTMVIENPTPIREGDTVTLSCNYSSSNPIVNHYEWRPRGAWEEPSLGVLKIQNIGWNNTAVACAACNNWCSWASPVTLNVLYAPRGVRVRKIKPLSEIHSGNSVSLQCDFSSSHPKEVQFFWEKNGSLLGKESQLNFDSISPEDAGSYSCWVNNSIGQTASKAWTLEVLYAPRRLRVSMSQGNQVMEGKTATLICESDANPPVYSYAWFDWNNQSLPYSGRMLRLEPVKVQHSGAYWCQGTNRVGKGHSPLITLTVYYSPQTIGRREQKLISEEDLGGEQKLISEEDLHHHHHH
Protocol: as §1

[2] = molecular target: T3, Monkey CD22.mmH (XP_005588899.1) (monkey (cyno)); assay: SPR (Biacore), mAb captured by anti-human Fc, monkey CD22.mmH (XP_005588899.1) injected, 25°C
T3 construct: also called REGN5280; mfCD22.mmH
T3 chain: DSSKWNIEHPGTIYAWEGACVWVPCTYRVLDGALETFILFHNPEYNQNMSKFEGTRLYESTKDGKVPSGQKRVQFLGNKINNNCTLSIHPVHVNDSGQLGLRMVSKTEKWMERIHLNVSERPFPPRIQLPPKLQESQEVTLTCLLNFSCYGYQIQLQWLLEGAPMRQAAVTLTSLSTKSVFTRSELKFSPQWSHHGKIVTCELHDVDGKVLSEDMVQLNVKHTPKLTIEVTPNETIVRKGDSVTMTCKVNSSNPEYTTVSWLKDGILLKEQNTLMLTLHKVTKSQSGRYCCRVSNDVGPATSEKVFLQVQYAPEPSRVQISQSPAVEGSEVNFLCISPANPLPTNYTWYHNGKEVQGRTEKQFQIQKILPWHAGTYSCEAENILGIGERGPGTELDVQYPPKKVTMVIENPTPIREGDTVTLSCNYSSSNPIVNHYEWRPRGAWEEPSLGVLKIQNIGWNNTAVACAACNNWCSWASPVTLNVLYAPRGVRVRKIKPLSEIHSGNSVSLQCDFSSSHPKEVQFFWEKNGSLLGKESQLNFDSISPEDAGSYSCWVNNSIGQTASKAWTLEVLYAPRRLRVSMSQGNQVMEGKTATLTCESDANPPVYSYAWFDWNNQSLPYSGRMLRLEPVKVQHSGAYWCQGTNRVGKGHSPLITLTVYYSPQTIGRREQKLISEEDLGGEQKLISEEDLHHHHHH
Protocol: as §1

human CD22 on cells [3] = molecular target: T4, human CD22 on cells (human, UniProt P20273 20-847); assay: flow cytometry on Nalm6 cells (human CD22)
T4 construct: whole, on cells; also called hCD22; CD22 on Nalm6 cells
Protocol: (§2) Flow cytometric analysis was utilized to determine binding of CD22×CD28 bispecific antibodies to human CD22 expressing Nalm6 cells and human CD28 expressing Jurkat cells and to cynomolgus monkey T (CD28+) and B (CD22+) cells. […] After incubation, the cells were washed twice with cold PBS containing 1% filtered FBS and a PE-conjugated anti-human secondary antibody was added to the cells and incubated for an additional 30 minutes. An additional phenotyping antibody cocktail (anti-CD2, anti-CD20, anti-CD16, anti-CD14) was added to wells with cynomolgus monkey PBCMs. Wells containing no antibody or secondary only were used as a control.
(§3) After incubation with secondary antibody, cells were washed, re-suspended in 200 μL cold PBS containing 1% filtered FBS and analyzed by flow cytometry on a BD LSR_Fortessa. Cynomolgus monkey T cells were identified as CD2+/CD16− and B cells as CD20+. EC₅₀ values for FACS binding were calculated using 4-parameter non-linear regression analysis in Prism software.

hCD28.mmH = molecular target: T5, hCD28.mmH (human); assay: SPR (Biacore T-200), mAb captured by anti-human Fc, hCD28.mmH injected, 25°C
T5 construct: also called human CD28 with a C-terminal myc.myc hexahistidine tag
Protocol: as §1

[4] = molecular target: T6, human CD20 on HEK293/hCD20 cells (human, UniProt P11836 1-297); assay: flow cytometry on HEK293/hCD20 cells (negative for CD22 and CD28), geometric mean MFI of APC
T6 construct: whole, on cells; Used as a cell line negative for CD28 and CD22; also called negative cell line for CD28 and CD22
T6 sequence (looked up): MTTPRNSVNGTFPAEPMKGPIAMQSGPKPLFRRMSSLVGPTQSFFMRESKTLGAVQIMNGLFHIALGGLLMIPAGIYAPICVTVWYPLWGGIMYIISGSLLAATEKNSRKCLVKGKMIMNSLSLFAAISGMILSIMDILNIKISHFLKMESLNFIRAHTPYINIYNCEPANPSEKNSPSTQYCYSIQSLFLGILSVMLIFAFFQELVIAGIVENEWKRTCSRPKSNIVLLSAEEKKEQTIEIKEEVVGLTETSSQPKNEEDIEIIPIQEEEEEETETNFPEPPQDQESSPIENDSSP
Protocol: (§4) Briefly, human CD4+ T-cells, HEK293/hCD20, HEK293/hCD20/hCD22 and Raji/CD80 and CD86 negative cells were resuspended in staining buffer containing D-PBS+2% FBS. […] A negative control sample was included containing no antibody. Cells were washed once with cold staining buffer and incubated for 30-45 minutes with Allophycocyanin (APC) labeled anti-human secondary antibody. After incubation, cells were washed once with cold D-PBS buffer without FBS and incubated with LIVE/DEAD Fixable Green Dead Cell Stain (Invitrogen) according to manufacturer's instructions to discriminate between live and dead cells. Cells were then fixed in BD Cytofix Buffer according to manufacturer's instructions, washed, re-suspended in staining buffer, and analyzed by flow cytometry on an iQue Screener flow cytometer. For EC₅₀ determinations, geometric mean fluorescence intensity (MFI) values were analyzed using a four parameter logistic equation over a 9-point response curve using GraphPad Prism. Fold binding was calculated using the following equation:

human CD22 [5] = molecular target: T7, human CD22 (human, UniProt P20273 20-847); assay: flow cytometry on HEK293/hCD20/hCD22 cells
T7 construct: whole, on cells; also called hCD22
Protocol: as §4

human CD22 [6] = molecular target: T7, human CD22; assay: flow cytometry on Raji/CD80 and CD86 negative cells
Protocol: as §4

human CD28 on cells = molecular target: T8, human CD28 on cells (human, UniProt P10747 19-220); assay: flow cytometry on Jurkat cells (human CD28)
T8 construct: whole, on cells; also called CD28 on Jurkat cells; CD28 on human CD4+ T-cells
Protocol: as §2, §3

human CD22 on cells [7] = molecular target: T4, human CD22 on cells; assay: flow cytometry on HEK293/hCD20/hCD22 cells, geometric mean MFI of APC
Protocol: as §4

| Binder | 90 nM hCD22.mmH Bind (RU) (hCD22.mmH) | t½ (hCD22.mmH) | Kd [1] | t1/2 [1] | t1/2 [2] | Kd (hCD22.mmH) | EC50 (human CD22 on cells [3]) | 600 nM hCD28.mmH Bind (RU) (hCD28.mmH) | Kd (hCD28.mmH) | binding result [4] | EC50 (human CD22 [5]) | EC50 (human CD22 [6]) | t1/2 (hCD28.mmH) | EC50 (human CD28 on cells) | binding result (human CD22 on cells [7]) |
| --- | --- | --- | --- | --- | --- | --- | --- | --- | --- | --- | --- | --- | --- | --- | --- |
| H4sH33041P2 (antibody, V domains shown, Anti-CD22 bivalent parental monoclonal antibody; also called mAb33041P2; CD22 mAb) VH: EVQLVESGGGLVQPGGSLKLSCAASGFTFSGSDMHWVRQASGKGLEWVGRIRNQPNSYATAYAASVKGRFTISRDDSKNTAHLQMNSLKTEDTAVYFCTRQKQVVYNYHHYYGMDVWGQGTTVTVSS VL: not shown | 61.5 RU | 59.8 min | 59.2 nM | 29.6 min | 39.8 min | – | – | – | – | – | – | – | – | – | – |
| REGN5837 (bispecific antibody, V domains shown, also called anti-CD22 x anti-CD28 bispecific antibody; CD22xCD28 mAb) VH 1: QVQLQESGPGLVKPSETLSLTCTVSGGSISSYYWSWIRQPPGKGLEWIGYIYYSGITHYNPSLKSRVTISVDTSKIQFSLKLSSVTAADTAVYYCARWGVRRDYYYYGMDVWGQGTTVTVSS VH 2: EVQLVQSGAEVKKPGESLKISCKGSGYNFATYWIAWVRQMPGKGLELMGIIYPGDSETTYNPSFQGQVTISADKSISNAYLQWSSLKASDTAMYYCARVGGYCSGTSCHNWFDPWGLGTLVTVSS VL: not shown | 100 RU | 7.8 min | – | – | – | 8.75 nM | 13 nM | 72.9 RU | 341 nM | no binding (tested: 10^-7 M) | – | – | – | – | – |
| REGN5838 (bispecific antibody, V domains shown, also called anti-CD22 x anti-CD28 bispecific antibody; CD22xCD28) VH 1: QVQLQESGPGLVKPSETLSLTCTVSGGSISSYYWSWIRQPPGKGLEWIGYIYYSGITHYNPSLKSRVTISVDTSKIQFSLKLSSVTAADTAVYYCARWGVRRDYYYYGMDVWGQGTTVTVSS VH 2: EVQLVESGGGLVQPGGSLKLSCAASGFTFSGSDMHWVRQASGKGLEWVGRIRNQPNSYATAYAASVKGRFTISRDDSKNTAHLQMNSLKTEDTAVYFCTRQKQVVYNYHHYYGMDVWGQGTTVTVSS VL: not shown | – | – | – | – | – | – | – | – | – | – | 11.4 nM | 14.9 nM | – | – | – |
| REGN5838 (bispecific antibody, V domains shown, also called anti-CD22 x anti-CD28 bispecific antibody; CD22xCD28 mAb) VH 1: QVQLQESGPGLVKPSETLSLTCTVSGGSISSYYWSWIRQPPGKGLEWIGYIYYSGITHYNPSLKSRVTISVDTSKIQFSLKLSSVTAADTAVYYCARWGVRRDYYYYGMDVWGQGTTVTVSS VH 2: EVQLVESGGGLVQPGGSLKLSCAASGFTFSGSDMHWVRQASGKGLEWVGRIRNQPNSYATAYAASVKGRFTISRDDSKNTAHLQMNSLKTEDTAVYFCTRQKQVVYNYHHYYGMDVWGQGTTVTVSS VL: not shown | 26.7 RU | 38.2 min | – | – | – | 14.3 nM | 18 nM | 77 RU | 404 nM | no binding (tested: 10^-7 M) | – | – | 2.3 min | 23 nM | – |
| REGN5705 (antibody, V domains shown, also called CD28 mAb; parental CD28 antibody) VH: QVQLQESGPGLVKPSETLSLTCTVSGGSISSYYWSWIRQPPGKGLEWIGYIYYSGITHYNPSLKSRVTISVDTSKIQFSLKLSSVTAADTAVYYCARWGVRRDYYYYGMDVWGQGTTVTVSS VL: not shown | – | – | – | – | – | – | – | 88.4 RU | – | no binding (tested: 10^-7 M) | – | – | 2.4 min | – | no binding (tested: 10^-7 M) |
| H4sH33037P2 (antibody, V domains shown, Anti-CD22 bivalent parental monoclonal antibody; also called mAb33037P2; CD22 mAb) VH: EVQLVQSGAEVKKPGESLKISCKGSGYNFATYWIAWVRQMPGKGLELMGIIYPGDSETTYNPSFQGQVTISADKSISNAYLQWSSLKASDTAMYYCARVGGYCSGTSCHNWFDPWGLGTLVTVSS VL: not shown | 193 RU | 7.8 min | 35.6 nM | 4 min | 4.3 min | – | – | – | – | – | – | – | – | – | – |
